# * marks the point of attachment. Hexanoyl = CCCCCC(=O)*
# T1: Rat VPAC1 receptor (rat, UniProt P30083 31-459)
# T1 sequence (looked up): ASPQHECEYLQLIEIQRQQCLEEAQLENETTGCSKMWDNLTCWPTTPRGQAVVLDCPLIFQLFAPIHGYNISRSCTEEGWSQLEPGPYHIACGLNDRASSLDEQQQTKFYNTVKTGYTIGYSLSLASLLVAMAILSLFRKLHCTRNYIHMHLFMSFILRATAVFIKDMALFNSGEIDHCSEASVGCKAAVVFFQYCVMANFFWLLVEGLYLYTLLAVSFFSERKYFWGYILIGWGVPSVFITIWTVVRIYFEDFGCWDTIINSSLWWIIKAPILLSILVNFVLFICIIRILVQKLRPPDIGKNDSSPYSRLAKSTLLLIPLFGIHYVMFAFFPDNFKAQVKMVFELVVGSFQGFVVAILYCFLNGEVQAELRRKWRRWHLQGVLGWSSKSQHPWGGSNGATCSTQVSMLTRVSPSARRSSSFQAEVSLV
# B1: P136: C6-…(WPEG40K)-NH2 (SEQ ID NO: 44) (peptide)
# peptide: Hexanoyl-HSDAVFTDNYTRLRKQVAAKKYLQSIKNSRTSPPPK-NH2
# modifications: not fully specified (residue 36); printed as C6-HSDAVFTDNYTRLRKQVAAKKYLQSIKNSRTSPPPK(WPEG40K)-NH2
# Target: T1, Rat VPAC1 receptor
# Experiment: cell-based or functional assay
binder,measurement,value
B1,"EC50 (nm), in vitro potency using DiscoveRx (cAMP)",15 nM
